From US20240052042A1 (Novartis, published 2024)

How the values were obtained:
[1] = target: T1, human NPR1 on CHO-K1 cells (human, UniProt P16066 33-1061); assay: cell-based or functional assay
T1 sequence: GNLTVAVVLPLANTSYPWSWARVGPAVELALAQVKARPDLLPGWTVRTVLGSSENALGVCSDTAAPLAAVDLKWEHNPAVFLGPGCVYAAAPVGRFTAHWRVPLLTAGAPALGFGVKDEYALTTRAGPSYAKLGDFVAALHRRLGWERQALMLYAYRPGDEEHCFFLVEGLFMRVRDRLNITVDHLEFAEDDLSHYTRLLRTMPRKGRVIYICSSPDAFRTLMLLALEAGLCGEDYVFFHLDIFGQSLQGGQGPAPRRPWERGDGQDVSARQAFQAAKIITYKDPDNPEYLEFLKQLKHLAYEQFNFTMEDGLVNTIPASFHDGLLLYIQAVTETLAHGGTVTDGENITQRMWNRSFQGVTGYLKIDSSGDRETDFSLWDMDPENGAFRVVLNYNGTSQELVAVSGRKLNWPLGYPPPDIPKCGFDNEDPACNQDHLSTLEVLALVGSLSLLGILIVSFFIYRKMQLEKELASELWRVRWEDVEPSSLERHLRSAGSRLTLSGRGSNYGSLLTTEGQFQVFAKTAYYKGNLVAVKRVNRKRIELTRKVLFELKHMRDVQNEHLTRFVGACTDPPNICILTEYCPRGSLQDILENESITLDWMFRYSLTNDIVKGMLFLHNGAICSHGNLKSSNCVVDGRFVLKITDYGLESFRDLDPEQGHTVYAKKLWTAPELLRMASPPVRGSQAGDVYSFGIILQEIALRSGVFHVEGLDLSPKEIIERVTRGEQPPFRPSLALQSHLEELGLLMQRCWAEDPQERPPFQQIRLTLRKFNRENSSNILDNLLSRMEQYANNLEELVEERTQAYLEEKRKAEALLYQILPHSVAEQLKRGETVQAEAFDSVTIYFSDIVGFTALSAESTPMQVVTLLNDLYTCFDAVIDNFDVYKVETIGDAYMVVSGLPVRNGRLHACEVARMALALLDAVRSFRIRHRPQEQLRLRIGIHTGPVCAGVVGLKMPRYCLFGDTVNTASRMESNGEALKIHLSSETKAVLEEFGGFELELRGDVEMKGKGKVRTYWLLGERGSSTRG

rat NPR1 (rNPR1) [2] = target: T2, rat NPR1 (rNPR1) (rat, UniProt P18910 29-469, limits assumed); assay: FabCys affinity (Biacore per paragraph 323)
T2 construct: Soluble antigen
T2 sequence: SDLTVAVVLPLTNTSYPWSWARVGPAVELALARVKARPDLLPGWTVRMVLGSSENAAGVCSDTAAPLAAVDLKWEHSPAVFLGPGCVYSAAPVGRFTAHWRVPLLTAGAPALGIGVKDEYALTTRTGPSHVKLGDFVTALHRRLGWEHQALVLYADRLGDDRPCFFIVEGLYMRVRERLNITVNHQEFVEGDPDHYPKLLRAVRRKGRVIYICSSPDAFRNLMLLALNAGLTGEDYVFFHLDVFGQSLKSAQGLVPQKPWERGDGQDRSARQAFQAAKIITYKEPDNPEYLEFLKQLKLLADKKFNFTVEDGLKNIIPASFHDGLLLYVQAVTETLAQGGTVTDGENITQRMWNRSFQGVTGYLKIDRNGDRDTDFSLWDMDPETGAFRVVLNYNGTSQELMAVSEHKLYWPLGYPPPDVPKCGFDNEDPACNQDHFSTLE

[3] = target: T3, human Natriuretic Peptide Receptor 1 (hNPR1) (human, UniProt P16066 33-473, limits assumed); assay: FabCys affinity (Biacore per paragraph 323)
T3 construct: pannings used NPR1-hFc; also called NPR1-hFc
T3 sequence: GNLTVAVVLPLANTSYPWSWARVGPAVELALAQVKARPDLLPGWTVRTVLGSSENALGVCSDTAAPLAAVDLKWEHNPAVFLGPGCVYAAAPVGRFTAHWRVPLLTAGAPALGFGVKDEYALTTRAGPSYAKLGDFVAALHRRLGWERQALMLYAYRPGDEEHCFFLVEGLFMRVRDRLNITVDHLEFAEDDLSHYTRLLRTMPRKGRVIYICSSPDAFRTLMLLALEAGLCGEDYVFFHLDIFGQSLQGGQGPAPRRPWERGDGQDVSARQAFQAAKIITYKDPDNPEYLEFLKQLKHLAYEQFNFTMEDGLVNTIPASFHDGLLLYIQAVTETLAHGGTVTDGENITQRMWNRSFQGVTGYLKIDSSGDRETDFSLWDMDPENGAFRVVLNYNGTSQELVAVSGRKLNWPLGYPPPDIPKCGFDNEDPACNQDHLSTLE

rNPR1-ANP complex [4] = target: T4, rNPR1-ANP complex (rat, UniProt P01160 124-151 (human entry), limits assumed); assay: FabCys affinity (Biacore per paragraph 323)
T4 construct: rNPR1 antigen in the presence of ANP; also called rNPR1 + 100 nM ANP
T4 sequence: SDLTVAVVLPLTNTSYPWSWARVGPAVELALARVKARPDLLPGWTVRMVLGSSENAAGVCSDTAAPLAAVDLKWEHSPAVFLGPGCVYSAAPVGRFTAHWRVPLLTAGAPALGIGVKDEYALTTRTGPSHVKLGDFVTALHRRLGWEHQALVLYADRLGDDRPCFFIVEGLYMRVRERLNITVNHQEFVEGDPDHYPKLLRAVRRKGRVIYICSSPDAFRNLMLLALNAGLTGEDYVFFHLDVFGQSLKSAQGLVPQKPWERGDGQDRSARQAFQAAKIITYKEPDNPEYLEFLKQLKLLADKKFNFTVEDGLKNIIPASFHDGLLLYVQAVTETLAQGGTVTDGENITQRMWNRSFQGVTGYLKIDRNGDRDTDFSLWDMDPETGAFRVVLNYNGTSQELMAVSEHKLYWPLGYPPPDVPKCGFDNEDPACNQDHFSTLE
T4 sequence (peptide): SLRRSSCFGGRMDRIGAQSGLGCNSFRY

hNPR1-ANP complex [5] = target: T5, hNPR1-ANP complex (human, UniProt P01160 124-151, limits assumed); assay: FabCys affinity (Biacore per paragraph 323)
T5 construct: hNPR1 antigen in the presence of ANP; also called hNPR1 + 100 nM ANP
T5 sequence: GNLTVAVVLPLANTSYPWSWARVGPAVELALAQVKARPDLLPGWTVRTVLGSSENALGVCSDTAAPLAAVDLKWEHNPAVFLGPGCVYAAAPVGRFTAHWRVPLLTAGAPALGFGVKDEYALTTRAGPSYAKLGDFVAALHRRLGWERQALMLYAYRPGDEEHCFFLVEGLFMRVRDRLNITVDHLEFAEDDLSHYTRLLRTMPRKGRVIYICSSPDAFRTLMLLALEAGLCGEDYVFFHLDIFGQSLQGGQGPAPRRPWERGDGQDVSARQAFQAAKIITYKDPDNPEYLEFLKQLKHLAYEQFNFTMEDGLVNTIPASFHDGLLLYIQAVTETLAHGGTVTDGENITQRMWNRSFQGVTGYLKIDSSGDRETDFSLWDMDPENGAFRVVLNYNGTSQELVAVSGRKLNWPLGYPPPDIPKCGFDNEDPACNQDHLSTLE
T5 sequence (peptide): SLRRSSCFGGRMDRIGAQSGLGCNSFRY

[6] = target: T6, human NPR3 in the presence of ANP (human, UniProt P17342 27-481; P01160 124-151, limits assumed); assay: FabCys affinity determination
T6 construct: also called hNPR3 + 100 nM ANP
T6 sequence (looked up): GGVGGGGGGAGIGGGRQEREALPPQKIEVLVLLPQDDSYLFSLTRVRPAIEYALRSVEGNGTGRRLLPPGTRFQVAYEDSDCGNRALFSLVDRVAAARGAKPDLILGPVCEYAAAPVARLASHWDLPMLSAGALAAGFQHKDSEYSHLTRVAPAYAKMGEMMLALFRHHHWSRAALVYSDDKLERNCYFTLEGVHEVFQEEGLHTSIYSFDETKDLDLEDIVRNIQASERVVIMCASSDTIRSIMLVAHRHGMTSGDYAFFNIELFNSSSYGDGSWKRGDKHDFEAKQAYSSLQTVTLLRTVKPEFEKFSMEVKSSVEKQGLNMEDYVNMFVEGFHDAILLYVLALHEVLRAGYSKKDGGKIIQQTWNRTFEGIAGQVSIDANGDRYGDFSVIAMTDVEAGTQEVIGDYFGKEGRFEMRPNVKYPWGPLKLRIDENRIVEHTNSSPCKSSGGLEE
T6 sequence (peptide, looked up): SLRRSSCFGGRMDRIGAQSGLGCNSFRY

[7] = target: T7, human NPR3 (counter target) (human, UniProt P17342 27-481, limits assumed); assay: FabCys affinity determination
T7 construct: Pannings used hNPR3-hFc; also called hNPR3; hNPR3-hFc
T7 sequence (looked up): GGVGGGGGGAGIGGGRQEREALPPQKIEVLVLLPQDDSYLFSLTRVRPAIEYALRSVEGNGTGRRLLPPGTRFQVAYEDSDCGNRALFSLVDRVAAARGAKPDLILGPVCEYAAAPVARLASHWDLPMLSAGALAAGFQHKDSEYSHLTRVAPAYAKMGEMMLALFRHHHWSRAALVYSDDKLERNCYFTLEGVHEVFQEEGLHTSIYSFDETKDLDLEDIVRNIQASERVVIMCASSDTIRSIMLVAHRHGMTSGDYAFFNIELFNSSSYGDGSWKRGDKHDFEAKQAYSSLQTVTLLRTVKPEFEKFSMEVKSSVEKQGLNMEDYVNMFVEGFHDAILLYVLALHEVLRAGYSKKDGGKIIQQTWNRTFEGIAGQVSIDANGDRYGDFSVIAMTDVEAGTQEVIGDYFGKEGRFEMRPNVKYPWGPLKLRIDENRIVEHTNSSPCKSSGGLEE

rat NPR1 (rNPR1) [8] = target: T2, rat NPR1 (rNPR1); assay: FabCys, parental value by Biacore, as in Table 5
[9] = target: T3, human Natriuretic Peptide Receptor 1 …; assay: FabCys, parental value by Biacore, as in Table 5
rNPR1-ANP complex [10] = target: T4, rNPR1-ANP complex; assay: FabCys, parental value by Biacore, as in Table 5
hNPR1-ANP complex [11] = target: T5, hNPR1-ANP complex; assay: FabCys, parental value by Biacore, as in Table 5

cGMP conc [nM] at 2 µM FabCys, +0.075 nM ANP [1]: 108 nM
cGMP conc [nM] at 2 µM FabCys, without ANP [1]: 32 nM
Kd (rat NPR1 (rNPR1) [2]): 2600 nM
Kd [3]: 1000 nM
Kd (rNPR1-ANP complex [4]): 1 nM
Kd (hNPR1-ANP complex [5]): 0.1 nM
binding result [6]: no binding
binding result [7]: no binding
Kd (rat NPR1 (rNPR1) [8]): 2600 nM
Kd [9]: 1000 nM
Kd (rNPR1-ANP complex [10]): 1 nM
Kd (hNPR1-ANP complex [11]): 0.1 nM
B1: WW03 (FabCys format) (Fab, V domains shown)
VH: QVQLLESGGGLVQPGGSLRLSCAASGFTFSSYWMNWVRQAPGKGLEWVSAISSDGSYTYYADSVKGRFTISRDNSKNTLYLQMNSLRAEDTAVYYCARDRYSMIYSYGAGAFDYWGQGTLVTVSS
VL: DIQMTQSPSSLSASVGDRVTITCRASQGISSYLAWYQQKPGKAPKLLIYTASTLQSGVPSRFSGSGSGTDFTLTISSLQPEDFATYYCMQSYEKPRTFGQGTKVEIK
notes: Monovalent FabCys
